Laboratory results published in patent US20150239980A1 (NEOTOPE BOSCIENCES, published 2015).
Positions count from the first letter of the chain named.

T1: recombinant hMCAM-His (human, UniProt P43121 24-559)
T1 construct: not shown: His tag
T1 chain: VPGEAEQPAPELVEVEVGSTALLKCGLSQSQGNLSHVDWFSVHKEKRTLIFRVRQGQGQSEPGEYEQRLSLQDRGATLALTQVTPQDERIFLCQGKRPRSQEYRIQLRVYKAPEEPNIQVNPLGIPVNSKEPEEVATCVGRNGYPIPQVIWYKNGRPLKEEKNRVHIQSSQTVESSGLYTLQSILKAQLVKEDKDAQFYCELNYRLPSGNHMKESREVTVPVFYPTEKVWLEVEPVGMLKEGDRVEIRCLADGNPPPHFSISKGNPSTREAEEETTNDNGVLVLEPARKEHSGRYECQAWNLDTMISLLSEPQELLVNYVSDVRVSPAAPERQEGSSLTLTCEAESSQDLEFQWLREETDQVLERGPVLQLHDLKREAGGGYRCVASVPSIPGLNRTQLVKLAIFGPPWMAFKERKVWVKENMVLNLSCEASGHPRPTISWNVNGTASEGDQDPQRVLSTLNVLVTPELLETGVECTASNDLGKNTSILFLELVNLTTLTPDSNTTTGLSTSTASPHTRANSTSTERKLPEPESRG

T2: human MCAM (melanoma cell adhesion molecule) expressed on transfected CHO cells (human, UniProt P43121 24-646)
T2 construct: also called hMCAM; CD146
T2 chain: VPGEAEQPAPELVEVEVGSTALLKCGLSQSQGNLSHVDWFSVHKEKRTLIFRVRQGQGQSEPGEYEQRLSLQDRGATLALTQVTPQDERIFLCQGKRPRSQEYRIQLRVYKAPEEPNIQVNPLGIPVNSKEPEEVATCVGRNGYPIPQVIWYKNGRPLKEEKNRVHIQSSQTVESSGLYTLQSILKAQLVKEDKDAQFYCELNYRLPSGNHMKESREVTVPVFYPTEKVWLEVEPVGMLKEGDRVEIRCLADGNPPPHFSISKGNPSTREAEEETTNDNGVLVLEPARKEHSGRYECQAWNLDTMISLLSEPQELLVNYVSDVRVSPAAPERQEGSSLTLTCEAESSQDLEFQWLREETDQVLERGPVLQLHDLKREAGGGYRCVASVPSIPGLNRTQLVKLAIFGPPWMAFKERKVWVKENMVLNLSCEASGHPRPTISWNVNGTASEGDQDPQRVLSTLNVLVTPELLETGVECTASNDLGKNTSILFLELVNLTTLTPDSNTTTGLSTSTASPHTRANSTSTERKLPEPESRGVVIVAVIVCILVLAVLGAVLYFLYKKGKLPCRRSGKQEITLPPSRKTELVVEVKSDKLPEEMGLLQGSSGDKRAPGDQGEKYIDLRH

B1: h2120_VH1 + h2120_VL1 (antibody, human IgG1, V domains shown)
VH: QVTLKESGPVLVKPTETLTLTCTVSGFSLTSNGVSWVRQPPGKALEWIAAISSGGTTYYNSAFKSRLTISRDTSKSQVVLTMTNMDPVDTATYYCARRYGYGWYFDFWGQGTLVTVSS
VL: DIQMTQSPSSLSASVGDRVTITCKASQNIYNSLAWYQQKPGKAPKVLIFNANSLQTGIPSRFSGSGSGTDFTLTISSLQPEDFATYYCQQFYSGYTFGQGTKLEIK
B2: h2120_VH4 + h2120_VL3 (antibody, human IgG1, V domains shown)
VH: B1 VH with N32Q
VL: B1 VL with T22N
B3: h2120_VH1 + h2120_VL2 (antibody, human IgG1, V domains shown)
VH: B1 VH
VL: B1 VL with I58V
B4: h2107_VH4 + h2107_VL2 (antibody, human IgG1, V domains shown)
VH: QVTLKESGPVLVKPTETLTLTCTVSGFSLTSSGVSWVRQPPGKALEWIAAISSGGSTYYNSAFKSRLTISPDTSKSQVVLTMTNMDPVDTATYYCARHRPFYFDYWGQGTLVTVSS
VL: DIQMTQSPSSLSASVGDRVTITCKGSQNIYKSLAWFQLKPGKVPKLLIYDANSLQTGIPSRFSGSGSGTDFTLTISSLQPEDVATYYCQQYYSGYTFGGGTKVEIK
B5: h2107_VH1 + h2107_VL1 (antibody, human IgG1, V domains shown)
VH: B4 VH with S32N, P71R
VL: B4 VL with L38Q
B6: h2107_VH6 + h2107_VL2 (antibody, human IgG1, V domains shown)
VH: B4 VH with S32N, G33A, P71R
VL: B4 VL
B7: h2107_VH5 + h2107_VL1 (antibody, human IgG1, V domains shown)
VH: B4 VH with S32Q
VL: B4 VL with L38Q
B8: h2107_VH6 + h2107_VL1 (antibody, human IgG1, V domains shown)
VH: B4 VH with S32N, G33A, P71R
VL: B4 VL with L38Q
B9: h2107_VH1 + h2107_VL3 (antibody, human IgG1, V domains shown)
VH: B4 VH with S32N, P71R
VL: B4 VL with T22N, L38Q
B10: h2107_VH5 + h2107_VL3 (antibody, human IgG1, V domains shown)
VH: B4 VH with S32Q
VL: B4 VL with T22N, L38Q
B11: h2107_VH6 + h2107_VL3 (antibody, human IgG1, V domains shown)
VH: B4 VH with S32N, G33A, P71R
VL: B4 VL with T22N, L38Q
B12: h2107_VH5 + h2107_VL2 (antibody, human IgG1, V domains shown)
VH: B4 VH with S32Q
VL: B4 VL
B13: chimeric 1749 TM (antibody, V domains shown)
VH: DVKLVESGGDLVKPGGSLKLSCAASGFTFSSYIMSWVRQTPEKRLEWVATISSGGSSTYYPDSVKGRFTISRDNAKNTLYLQMSSLKSEDTAMYYCTRDDDYDVKVFAYWGQGTLVTVSA
VL: DIVMSQSPSSLAVSAGEKVTMNCKSSRSLLNSRIRKNYLAWYQQKPGQSPKLLIYWASTRESGVPDRFTGSGSGTDFTLTISSVQAEDLAVYYCKQSYNLLTFGAGTKLELK

Target: T1, recombinant hMCAM-His
Assay: summary of ForteBio, hMCAM-His; vs rodent 2120
Protocol: (§1) The affinities were measured using the ForteBio Octet Red. Anti-human Fc sensors were used to capture the humanized antibodies, and several concentrations of hMCAMHis analyte were used to determine the affinity using a 1:1 fitting model.

fold reduction in affinity as measured by ForteBio	Binder
> 5 fold	B1
> 5 fold	B2
> 5 fold	B3

Target: T1, recombinant hMCAM-His
Assay: ForteBio Octet Red, hMCAM-His analyte; Expt. #1; vs rodent 2107
Protocol: as §1

fold over rodent (Forte affinity)	Binder
5.59 fold	B4

Target: T1, recombinant hMCAM-His
Assay: ForteBio Octet Red, hMCAM-His analyte; Forte column 1; vs rodent 2107
Protocol: as §1

fold over rodent (Forte affinity)	Binder
12.9 fold	B5
5.2 fold	B6
28.2 fold	B7
36.8 fold	B8
16.3 fold	B9
33.2 fold	B10
22.1 fold	B11
5.9 fold	B12

Target: T1, recombinant hMCAM-His
Assay: ForteBio Octet Red, hMCAM-His analyte; Forte column 1; vs rodent 2120
Protocol: as §1

fold over rodent (Forte affinity)	Binder
8.8 fold	B1
17.4 fold	B2
10.8 fold	B3

Target: T1, recombinant hMCAM-His
Assay: ForteBio Octet Red, hMCAM-His analyte; Forte column 2; vs rodent 2107
Protocol: as §1

fold over rodent (Forte affinity)	Binder
5.5 fold	B6
6 fold	B12

Target: T2, human MCAM (melanoma cell adhesion …)
Assay: laminin/FACS on hMCAM CHO cells, competitor laminin 411; Expt#1; vs rodent 2107
Protocol: (§2) Following incubation for 30-45 minutes, the cells were washed and anti-laminin conjugated to AF650 (NovusBio) was added to detect the bound laminin. The cells were run on a flow cytometer to measure the laminin binding signal.

fold over rodent (blocking, laminin/FACS)	Binder
2.3 fold	B5
4.8 fold	B6
2.6 fold	B9
1.6 fold	B12

Target: T2, human MCAM (melanoma cell adhesion …)
Assay: laminin/FACS on hMCAM CHO cells, competitor laminin 411; Expt#1; vs rodent 2120
Protocol: as §2

fold over rodent (blocking, laminin/FACS)	Binder
2 fold	B1
3.8 fold	B2
4.6 fold	B3

Target: T2, human MCAM (melanoma cell adhesion …)
Assay: laminin/FACS on hMCAM CHO cells, competitor laminin 411; Expt#2; vs rodent 2120
Protocol: as §2

fold over rodent (blocking, laminin/FACS)	Binder
3.5 fold	B1
5.6 fold	B2
12.6 fold	B3

Target: T1, recombinant hMCAM-His
Assay: competitive ELISA on hMCAM-His, competitor biotinylated rodent or chimeric 2107; vs rodent 2107
Protocol: (§3) ELISA plates were coated with recombinant hMCAM-His, and blocked with casein buffer to prevent non-specific binding. Biotinylated rodent or chimeric antibody was added at a subsaturating concentration, in the presence or absence of 3× increasing concentrations of unlabeled competitor (humanized antibody, rodent, or chimeric). After washing to remove unbound antibody, streptavidin HRP was added to allow detection of the biotinylated antibody. The ELISA was developed with TMB substrate and the OD450 was measured. The IC50 of the unlabeled competitor was determined using the GraphPad Prism5 software.

fold over rodent (competitive ELISA)	Binder
2.1 fold	B5
3.5 fold	B6
3.7 fold	B7
15.3 fold	B8
2.3 fold	B9
3.4 fold	B10
9.9 fold	B11
1.3 fold	B12

Target: T1, recombinant hMCAM-His
Assay: competitive ELISA on hMCAM-His, competitor biotinylated rodent or chimeric 2120; vs rodent 2120
Protocol: as §3

fold over rodent (competitive ELISA)	Binder
3.1 fold	B1
5 fold	B2
3.1 fold	B3

Target: T2, human MCAM (melanoma cell adhesion …)
Assay: laminin/FACS on hMCAM CHO cells, competitor laminin 411; Expt#2; reference row with 1.0 is chimeric 2107
Protocol: as §2

fold over rodent (blocking, laminin/FACS)	Binder
2.1 fold	B5
2.3 fold	B6
2 fold	B9
1.5 fold	B12

Target: T1, recombinant hMCAM-His
Assay: competitive ELISA on hMCAM-His, competitor biotinylated rodent or chimeric 1749; Expt. #2; vs rodent 1749
Protocol: as §3

fold over rodent (competitive ELISA)	Binder
1.07 fold	B13

Target: T1, recombinant hMCAM-His
Assay: competitive ELISA on hMCAM-His, competitor biotinylated rodent or chimeric 2107; Expt. #1; vs rodent 2107
Protocol: as §3

fold over rodent (competitive ELISA)	Binder
11.7 fold	B4
